Results published in patent US20180044434A1 (PUBLIC UNIVERSITY CORPORATION YOKOHAMA CITY UNIVERSITY, published 2018).
Numbering of substitutions follows the chain as printed.

T1: Ala mutant of TA0096, SEQ ID NO: 34
T1 peptide: EENMDDQAMQDEMEIGY

T2: Ala mutant of TA0096, SEQ ID NO: 32
T2 peptide: EENMDAQWMQDEMEIGY

T3: Ala mutant having 3-amino acid substitution, SEQ ID NO: 46
T3 peptide: EENMDDAAAQDEMEIGY

T4: Ala mutant of TA0096, SEQ ID NO: 35
T4 peptide: EENMDDQWAQDEMEIGY

T5: Ala mutant having 3-amino acid substitution, SEQ ID NO: 45
T5 peptide: EENAAAQWMQDEMEIGY

B1: A11 (antibody, V domains shown)
VH: AVTLDESGGGLQTPGGALSLVCKASGFDFSSYGMGWMRQAPGKGLEYVAAIRNDGSWTGYGAAVKGHATISRDNGQSTVRLQLNNLRAEDTGTYYCAKTTGSRGGSIDAWGHGTEVIVS
VL: ASTQPSSVSANLGGTVEITCSGGGRYYYGWYQQKSPGSAPVTVIYANDKRPSDIPSRFSGSKSGSTGTLTITGVQAEDEAVYFCGSAETSSYVFGAGTTLTVL
notes: Chicken variable regions in a mouse chimeric antibody (IgG1); also called anti-PAD4 antibody A11
B2: G6 (antibody, V domains shown)
VH: B1 VH with D28T, G35E, M37V, H67R, N74D, V79L, G92A, R103S
VL: B1 VL with G14E, E17K, R25N, V43L, D53N, S86T, E88D, S90G, S91K
notes: Chicken variable regions in a mouse chimeric antibody (IgG1); also called anti-PAD4 antibody G6
B3: H7 (antibody, V domains shown)
VH: B1 VH with D28T, S31T, G33A, H67R, S71L, N84S, T99Y, R103S, D108G
VL: ASTQPSSVSANPGGTVEITCSGGSGRYYYGWYQQKSPGSAPVTVIYSSTHRPSNIPSRFSGSKSGSTATLTITGVQAEDEAVYFCGTADSSSYVFGAGTTLTVL
notes: Chicken variable regions in a mouse chimeric antibody (IgG1); also called anti-PAD4 antibody H7
B4: G8 (antibody, V domains shown)
VH: B1 VH with D28T, S31T, G33A, H67R, S71L, N84S, T99Y, R103S, D108G
VL: ASTQPSSVSANLGGTVEITCSGGNRNYYYGWYQQKSPGSAPVTLIYANDKRPSNIPSRFSGSKSGSTGTLTITGVQAEDEAVYFCGTADTGKYVFGAGTTLTVL
notes: Chicken variable regions in a mouse chimeric antibody (IgG1); also called anti-PAD4 antibody G8
B5: G9 (antibody, V domains shown)
VH: B1 VH with D28T, S31T, G33A, H67R, S71L, N84S, T99Y, R103S, D108G
VL: B1 VL with S2V, S6A
notes: Chicken variable regions in a mouse chimeric antibody (IgG1); also called anti-PAD4 antibody G9
B6: E9 (antibody, V domains shown)
VH: B1 VH with A17T, A24G, D28T, A62S, H67R, G92A, T100S, R103S, I107V
VL: B1 VL
notes: Chicken variable regions in a mouse chimeric antibody (IgG1); also called anti-PAD4 antibody E9

molecular target: T6, full-length recombinant mouse PAD4 (mouse, UniProt Q9Z183 1-666); assay: ELISA, coated mouse PAD4; antibody 6.104E-05 ug/mL
T6 construct: mature; Full-length recombinant
T6 sequence (Q9Z183 whole entry): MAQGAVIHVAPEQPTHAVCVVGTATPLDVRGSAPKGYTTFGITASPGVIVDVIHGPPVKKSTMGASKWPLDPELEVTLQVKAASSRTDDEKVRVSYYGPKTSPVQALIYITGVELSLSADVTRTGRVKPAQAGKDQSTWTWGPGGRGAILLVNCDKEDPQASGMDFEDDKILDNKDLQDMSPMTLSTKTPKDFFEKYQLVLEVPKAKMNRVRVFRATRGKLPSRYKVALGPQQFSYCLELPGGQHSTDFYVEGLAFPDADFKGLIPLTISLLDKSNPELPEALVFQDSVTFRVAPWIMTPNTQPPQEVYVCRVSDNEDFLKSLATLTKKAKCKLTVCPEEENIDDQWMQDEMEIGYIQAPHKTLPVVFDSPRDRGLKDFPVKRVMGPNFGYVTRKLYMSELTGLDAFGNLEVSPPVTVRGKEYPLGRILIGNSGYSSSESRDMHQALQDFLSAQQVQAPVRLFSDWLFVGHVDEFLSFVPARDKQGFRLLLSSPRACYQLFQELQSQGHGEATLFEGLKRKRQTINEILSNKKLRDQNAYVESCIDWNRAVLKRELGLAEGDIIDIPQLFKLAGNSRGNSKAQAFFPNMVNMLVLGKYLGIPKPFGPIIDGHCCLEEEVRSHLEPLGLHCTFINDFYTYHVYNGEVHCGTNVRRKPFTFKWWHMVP

OD 490/630 nm | Binder
0.045 | B1
0.044 | B2
0.103 | B3
0.122 | B4
0.079 | B5
0.051 | B6

molecular target: T7, full-length recombinant human PAD4 (human, UniProt Q9UM07 1-663); assay: ELISA, coated human PAD4; antibody 0.0009766 ug/mL
T7 construct: Full-length recombinant; also called peptidylarginine deiminase 4
T7 sequence (Q9UM07 whole entry): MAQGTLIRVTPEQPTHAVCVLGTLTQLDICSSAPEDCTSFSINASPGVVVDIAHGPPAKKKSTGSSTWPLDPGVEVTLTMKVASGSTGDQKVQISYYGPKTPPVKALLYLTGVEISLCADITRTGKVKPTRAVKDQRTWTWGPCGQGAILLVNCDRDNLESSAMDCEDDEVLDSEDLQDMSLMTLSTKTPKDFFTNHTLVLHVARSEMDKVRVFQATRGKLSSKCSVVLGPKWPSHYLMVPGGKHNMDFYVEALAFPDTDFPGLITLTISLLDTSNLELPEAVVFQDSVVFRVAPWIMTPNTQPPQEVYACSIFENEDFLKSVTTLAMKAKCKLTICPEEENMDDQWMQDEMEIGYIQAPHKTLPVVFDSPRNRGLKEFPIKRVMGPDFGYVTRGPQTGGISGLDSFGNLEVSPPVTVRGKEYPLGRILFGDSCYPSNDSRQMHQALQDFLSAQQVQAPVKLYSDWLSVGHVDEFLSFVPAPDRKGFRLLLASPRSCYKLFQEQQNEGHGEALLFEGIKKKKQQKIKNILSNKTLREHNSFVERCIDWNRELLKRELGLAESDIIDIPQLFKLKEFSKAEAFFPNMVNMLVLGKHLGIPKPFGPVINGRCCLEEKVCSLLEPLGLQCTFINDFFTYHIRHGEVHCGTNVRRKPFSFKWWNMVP

OD 490/630 nm | Binder
0.511 | B1
0.437 | B2
0.537 | B3
0.544 | B4
0.534 | B5
0.489 | B6

molecular target: T7, full-length recombinant human PAD4; assay: ELISA, coated human PAD4; antibody 0.0039063 ug/mL

OD 490/630 nm | Binder
1.31 | B1
1.16 | B2
1.35 | B3
1.34 | B4
1.36 | B5
1.36 | B6

molecular target: T6, full-length recombinant mouse PAD4; assay: ELISA, coated mouse PAD4; antibody 0.0625 ug/mL

OD 490/630 nm | Binder
2.24 | B1
2.16 | B2
2.29 | B3
2.22 | B4
2.24 | B5
2.19 | B6

molecular target: T7, full-length recombinant human PAD4; assay: ELISA, coated human PAD4; antibody 1 ug/mL

OD 490/630 nm | Binder
2.15 | B1
2.11 | B2
2.11 | B3
2.12 | B4
2.1 | B5
2.11 | B6

Molecular target: T1, Ala mutant of TA0096, SEQ ID NO: 34
Assay: ELISA, alanine scan (position 347)
Description: (§1) The epitope of each of A11 etc. was identified by alanine scan. Specifically, the following procedures (i) to (iii) were carried out. (i) Each amino acid residue of the antigen sequence (SEQ ID NO: 1) was replaced by another amino acid one by one, and 17 different Ala mutants (SEQ ID Nos: 27 to 43) were synthesized. (ii) The reactivity of each of the Ala mutants toward a test antibody was evaluated (ELISA).
(§2) The “96 pAb” designated in the table refers to antiserum as obtained by immunizing a chicken with TA0096 (SEQ ID NO: 1). The 96 pAb, which is an anti-PAD4 polyclonal antibody, can substantially keep the affinity toward PAD4 even if any of single amino acids of PAD4 is replaced.

binding result | Binder
no binding | B1
no binding | B2
no binding | B3
no binding | B4
no binding | B5
no binding | B6

molecular target: T6, full-length recombinant mouse PAD4; assay: ELISA, coated mouse PAD4; antibody 0.0009766 ug/mL

OD 490/630 nm | Binder
0.386 | B1
0.2 | B2
0.55 | B3
0.555 | B4
0.542 | B5
0.416 | B6

molecular target: T6, full-length recombinant mouse PAD4; assay: ELISA, coated mouse PAD4; antibody 0.0002441 ug/mL

OD 490/630 nm | Binder
0.152 | B1
0.071 | B2
0.224 | B3
0.205 | B4
0.181 | B5
0.122 | B6

Molecular target: T2, Ala mutant of TA0096, SEQ ID NO: 32
Assay: ELISA, coated peptide

OD 490/630 nm | Binder
0.035 | B2
0.033 | B3
0.083 | B4
0.039 | B5

Molecular target: T3, Ala mutant having 3-amino acid …
Assay: ELISA, coated peptide

OD 490/630 nm | Binder
0.043 | B1
0.083 | B2
0.044 | B3
0.131 | B5
0.027 | B6

molecular target: T7, full-length recombinant human PAD4; assay: ELISA, coated human PAD4; antibody 0.0625 ug/mL

OD 490/630 nm | Binder
2.15 | B1
2.12 | B2
2.12 | B3
2.12 | B4
2.11 | B5
2.12 | B6

Molecular target: T4, Ala mutant of TA0096, SEQ ID NO: 35
Assay: ELISA, alanine scan (position 348)
Description: as §1, §2

binding result | Binder
no binding | B1
no binding | B2
no binding | B3
no binding | B6

Molecular target: T3, Ala mutant having 3-amino acid …
Assay: ELISA, 3-amino acid Ala mutants
Description: as §1
(§3) Note that, as additional experiments, 6 different Ala mutants having 3-amino acid substitution (SEQ ID NOs: 44 to 49) were likewise examined in the experiments.

binding result | Binder
no binding | B1
no binding | B2
no binding | B3
no binding | B5
no binding | B6

Molecular target: T5, Ala mutant having 3-amino acid …
Assay: ELISA, 3-amino acid Ala mutants
Description: as §1, §3

binding result | Binder
no binding | B1
no binding | B2
no binding | B3
no binding | B4
no binding | B5
no binding | B6

Molecular target: T2, Ala mutant of TA0096, SEQ ID NO: 32
Assay: ELISA, alanine scan (position 345)
Description: as §1, §2

binding result | Binder
no binding | B2
no binding | B3
no binding | B4
no binding | B5

molecular target: T7, full-length recombinant human PAD4; assay: SPR (Biacore T200), antibody captured, human PAD4 analyte
Description: Biacore (GE Healthcare, Biacore T200) was carried out to evaluate the affinity of A11 etc., toward human PAD4. A Mouse Antibody Capture kit (GE Healthcare, BR-1008-38) was used for the affinity assay. Specifically, in accordance with the standard protocol provided by the manufacture, NHS/EDC was used and an amine coupling method, in which a free carboxyl group is fixed on a surface of a CM5 chip, was used to immobilize a rabbit anti-mouse polyclonal antibody on the surface of a CM5 chip. Next, A11 etc., were each captured by the rabbit anti-mouse polyclonal antibody. L207 was likewise captured. Then, human PAD4 at each concentration was subjected to Biacore T200 measurement to create a kinetic sensorgram.

Kd | koff | kon | Binder
4.37 nM | 0.000566 s⁻¹ | 129000 M⁻¹ s⁻¹ | B1
8.74 nM | 0.000389 s⁻¹ | 44500 M⁻¹ s⁻¹ | B2
7.56 nM | 0.000791 s⁻¹ | 105000 M⁻¹ s⁻¹ | B3
2.34 nM | 0.000243 s⁻¹ | 104000 M⁻¹ s⁻¹ | B4
3.16 nM | 0.000284 s⁻¹ | 90000 M⁻¹ s⁻¹ | B5
5.52 nM | 0.000837 s⁻¹ | 152000 M⁻¹ s⁻¹ | B6
